Data from the supplement of paper PMC12764529.
± gives the half width of the 95% confidence interval.

assay: folding stability dG unfold (combined trypsin and chymotrypsin); higher = more stable
Procedure, shortened: (§1)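 K50 was inferred by Bayesian fitting of sequencing counts obtained after protease digestion of designed mini-proteins. Unfolding free energy was derived by comparison with a sequence-predicted unfolded-state K50 and a shared folded-state K50, for each protease or both combined. The mini-proteins were under 80 residues, had no cysteine, were carried in a PA-tagged cDNA display construct, and were kept only if AlphaFold2 dimer inter-PAE exceeded 15.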

Row | Sequence | folding stability dG unfold
1 | SAGGSAGGSAKPKITVTVEEVTNEDGSTYYRATARIEETGRTIEIYVRRDDLGKPVAIKITSAGGSAGGSAG [r3_432_TrROS_Hall] | 2.18 ± 0.12 kcal/mol
2 | SAGGSAGGSAGGMVTATVTEYQPGEGLLTVKPPDGSTITIAVPPSVSYEELKNTTIDLSLSAGGSAGGSAGG [r7_296_JUSTAS] | 0.714 ± 0.066 kcal/mol
3 | SAGGSAGGSKVEVKEFEFKANGSKALIEKLEDGSVKIIVLGEEPKEYEISPEEPIVILPGFEVSAGGSAGGS [r12_1003_TrMRF] | -0.172 ± 0.09 kcal/mol
4 | SAGGSAMIKIKLPNGEVAEIELSPDGKKVLIRYKDGSIEEIEIKDGKITKIKPLPNAPPNAEIVEVSAGGSA [r15_709_TrROS_Hall] | 2.47 ± 0.077 kcal/mol
5 | SAGGSAGGSAGGPKIEVNEDGTVTITLEVDGKLVTKTVKVELEAPPVETVEFVKEGEEVSAGGSAGGSAGGS [r10_240_TrROS_Hall] | 1.02 ± 0.077 kcal/mol
6 | SAGMVVKFVSPSKKYVAVVYFSPDGKYRTALLYDASGELVSVIPSSVPVEELLEAFPDATVEVYPLDPPSAG [r5_314_TrMRF] | 2.34 ± 0.1 kcal/mol
7 | SAGGSAYGYFYEYKIRFNGQDLSIALPAGDMEKLKDLPGVEIEPRRPEEPPPPPKEEERDPDGKKKSAGGSA [r15_443_TrROS] | 2.8 ± 0.24 kcal/mol
8 | SMEKVKAKPAGEVTFVFDNEDPSLTPEQQVELVEKELEKLPELKIYEVEAEVDLETGKVTIKVKLLVEEVSA [r9_1001_TrMRF] | 0.814 ± 0.22 kcal/mol
9 | SAEIPPDLIAVILGIEPYRFGERDFLVITAAIFRPEEPDAEVTLYTIVIEGDKIVSITPSRYRVPPEALSAG [r14_651_TrMRF] | 3.55 ± 0.11 kcal/mol
10 | SAGGSAGGSAGGSMIVERKPAPGGPRVEITIEIPDPTSDVPIIKKLVAEVLEDGSIVKASAGGSAGGSAGGS [r4_448_JUSTAS] | -0.205 ± 0.21 kcal/mol
11 | SAGGSAPEPVEFTLGHPDGVPYRVTLTRLPDTDLYLVTVEFPGPEVTFTGVAPLEVLENIPGLTPVSAGGSA [r15_622_TrMRF] | 1.72 ± 0.068 kcal/mol
12 | SAGGSMVRVTIEDKDGKEHWIMIPPGMDPNDVKQQIKKFLEDNGWKVKDVEVETYPPGWAMIRVRVSAGGSA [r2_148_TrROS] | 2.2 ± 0.052 kcal/mol
13 | SAGGSAGGEPELNVLETLEETVDPNTGLTYTTELVQLPDGTLVTVKTLYDKATGTWTVLETTPESAGGSAGG [r6_262_JUSTAS] | 2.18 ± 0.13 kcal/mol
14 | SAGGSLLEQEAAARGYQVEIERIPGTGVYLVTLTPPDGSRVVVTVEVVKTPKTGLVELRTLETRELPPSAGG [r13_936_JUSTAS] | 1.53 ± 0.052 kcal/mol
15 | SAGGSAGGSAGGSMLKGKIISVDPKKGYAIIYIPGKKKLLIIKFDPDNTIVEIKEAPLSSAGGSAGGSAGGS [r4_192_TrMRF] | 2.44 ± 0.33 kcal/mol
16 | SAGGMVKIVRVTFEDGRELVLTEPEKIEEFLKKALGPNFVIKEVREGYVPHPDGPPIPTFELVVERPSAGGS [r16_408_TrMRF] | 2.44 ± 0.042 kcal/mol
17 | SAGGGPDEVSEVKVSSTTTDPATGKTYTVDTTTVTTPGTVTTNTTYTVHDPVTGAVTTETTTTTTPPGSAGG [r13_206_JUSTAS] | 0.59 ± 0.045 kcal/mol

assay: folding stability dG unfold from trypsin proteolysis; higher = more stable
Procedure, shortened: as §1

Row | Sequence | folding stability dG unfold
18 | SAGGSAGGSAKPKITVTVEEVTNEDGSTYYRATARIEETGRTIEIYVRRDDLGKPVAIKITSAGGSAGGSAG [r3_432_TrROS_Hall] | 1.82 ± 0.058 kcal/mol
19 | SAGGSAGGSAGGMVTATVTEYQPGEGLLTVKPPDGSTITIAVPPSVSYEELKNTTIDLSLSAGGSAGGSAGG [r7_296_JUSTAS] | 1.09 ± 0.036 kcal/mol
20 | SAGGSAGGSKVEVKEFEFKANGSKALIEKLEDGSVKIIVLGEEPKEYEISPEEPIVILPGFEVSAGGSAGGS [r12_1003_TrMRF] | -0.341 ± 0.068 kcal/mol
21 | SAGGSAMIKIKLPNGEVAEIELSPDGKKVLIRYKDGSIEEIEIKDGKITKIKPLPNAPPNAEIVEVSAGGSA [r15_709_TrROS_Hall] | 1.92 ± 0.029 kcal/mol
22 | SAGGSAGGSAGGPKIEVNEDGTVTITLEVDGKLVTKTVKVELEAPPVETVEFVKEGEEVSAGGSAGGSAGGS [r10_240_TrROS_Hall] | 0.822 ± 0.043 kcal/mol
23 | SAGMVVKFVSPSKKYVAVVYFSPDGKYRTALLYDASGELVSVIPSSVPVEELLEAFPDATVEVYPLDPPSAG [r5_314_TrMRF] | 1.95 ± 0.041 kcal/mol
24 | SAGGSAYGYFYEYKIRFNGQDLSIALPAGDMEKLKDLPGVEIEPRRPEEPPPPPKEEERDPDGKKKSAGGSA [r15_443_TrROS] | 2.3 ± 0.18 kcal/mol
25 | SMEKVKAKPAGEVTFVFDNEDPSLTPEQQVELVEKELEKLPELKIYEVEAEVDLETGKVTIKVKLLVEEVSA [r9_1001_TrMRF] | -0.41 ± 0.28 kcal/mol
26 | SAEIPPDLIAVILGIEPYRFGERDFLVITAAIFRPEEPDAEVTLYTIVIEGDKIVSITPSRYRVPPEALSAG [r14_651_TrMRF] | 2.92 ± 0.098 kcal/mol
27 | SAGGSAGGSAGGSMIVERKPAPGGPRVEITIEIPDPTSDVPIIKKLVAEVLEDGSIVKASAGGSAGGSAGGS [r4_448_JUSTAS] | -0.193 ± 0.16 kcal/mol
28 | SAGGSAPEPVEFTLGHPDGVPYRVTLTRLPDTDLYLVTVEFPGPEVTFTGVAPLEVLENIPGLTPVSAGGSA [r15_622_TrMRF] | 1.53 ± 0.035 kcal/mol
29 | SAGGSMVRVTIEDKDGKEHWIMIPPGMDPNDVKQQIKKFLEDNGWKVKDVEVETYPPGWAMIRVRVSAGGSA [r2_148_TrROS] | 1.88 ± 0.021 kcal/mol
30 | SAGGSAGGEPELNVLETLEETVDPNTGLTYTTELVQLPDGTLVTVKTLYDKATGTWTVLETTPESAGGSAGG [r6_262_JUSTAS] | 2.4 ± 0.18 kcal/mol
31 | SAGGSLLEQEAAARGYQVEIERIPGTGVYLVTLTPPDGSRVVVTVEVVKTPKTGLVELRTLETRELPPSAGG [r13_936_JUSTAS] | 1.24 ± 0.023 kcal/mol
32 | SAGGSAGGSAGGSMLKGKIISVDPKKGYAIIYIPGKKKLLIIKFDPDNTIVEIKEAPLSSAGGSAGGSAGGS [r4_192_TrMRF] | 2.82 ± 0.35 kcal/mol
33 | SAGGMVKIVRVTFEDGRELVLTEPEKIEEFLKKALGPNFVIKEVREGYVPHPDGPPIPTFELVVERPSAGGS [r16_408_TrMRF] | 2.11 ± 0.053 kcal/mol
34 | SAGGGPDEVSEVKVSSTTTDPATGKTYTVDTTTVTTPGTVTTNTTYTVHDPVTGAVTTETTTTTTPPGSAGG [r13_206_JUSTAS] | 0.583 ± 0.034 kcal/mol

assay: folding stability dG unfold from chymotrypsin proteolysis; higher = more stable
Procedure, shortened: as §1

Row | Sequence | folding stability dG unfold
35 | SAGGSAGGSAKPKITVTVEEVTNEDGSTYYRATARIEETGRTIEIYVRRDDLGKPVAIKITSAGGSAGGSAG [r3_432_TrROS_Hall] | 2.4 ± 0.085 kcal/mol
36 | SAGGSAGGSAGGMVTATVTEYQPGEGLLTVKPPDGSTITIAVPPSVSYEELKNTTIDLSLSAGGSAGGSAGG [r7_296_JUSTAS] | 0.021 ± 0.072 kcal/mol
37 | SAGGSAGGSKVEVKEFEFKANGSKALIEKLEDGSVKIIVLGEEPKEYEISPEEPIVILPGFEVSAGGSAGGS [r12_1003_TrMRF] | -0.172 ± 0.1 kcal/mol
38 | SAGGSAMIKIKLPNGEVAEIELSPDGKKVLIRYKDGSIEEIEIKDGKITKIKPLPNAPPNAEIVEVSAGGSA [r15_709_TrROS_Hall] | 2.72 ± 0.041 kcal/mol
39 | SAGGSAGGSAGGPKIEVNEDGTVTITLEVDGKLVTKTVKVELEAPPVETVEFVKEGEEVSAGGSAGGSAGGS [r10_240_TrROS_Hall] | 1.21 ± 0.046 kcal/mol
40 | SAGMVVKFVSPSKKYVAVVYFSPDGKYRTALLYDASGELVSVIPSSVPVEELLEAFPDATVEVYPLDPPSAG [r5_314_TrMRF] | 2.59 ± 0.056 kcal/mol
41 | SAGGSAYGYFYEYKIRFNGQDLSIALPAGDMEKLKDLPGVEIEPRRPEEPPPPPKEEERDPDGKKKSAGGSA [r15_443_TrROS] | 2.98 ± 0.071 kcal/mol
42 | SMEKVKAKPAGEVTFVFDNEDPSLTPEQQVELVEKELEKLPELKIYEVEAEVDLETGKVTIKVKLLVEEVSA [r9_1001_TrMRF] | 1.26 ± 0.11 kcal/mol
43 | SAEIPPDLIAVILGIEPYRFGERDFLVITAAIFRPEEPDAEVTLYTIVIEGDKIVSITPSRYRVPPEALSAG [r14_651_TrMRF] | 3.86 ± 0.047 kcal/mol
44 | SAGGSAGGSAGGSMIVERKPAPGGPRVEITIEIPDPTSDVPIIKKLVAEVLEDGSIVKASAGGSAGGSAGGS [r4_448_JUSTAS] | -0.525 ± 0.27 kcal/mol
45 | SAGGSAPEPVEFTLGHPDGVPYRVTLTRLPDTDLYLVTVEFPGPEVTFTGVAPLEVLENIPGLTPVSAGGSA [r15_622_TrMRF] | 1.88 ± 0.09 kcal/mol
46 | SAGGSMVRVTIEDKDGKEHWIMIPPGMDPNDVKQQIKKFLEDNGWKVKDVEVETYPPGWAMIRVRVSAGGSA [r2_148_TrROS] | 2.33 ± 0.031 kcal/mol
47 | SAGGSAGGEPELNVLETLEETVDPNTGLTYTTELVQLPDGTLVTVKTLYDKATGTWTVLETTPESAGGSAGG [r6_262_JUSTAS] | 2.07 ± 0.079 kcal/mol
48 | SAGGSLLEQEAAARGYQVEIERIPGTGVYLVTLTPPDGSRVVVTVEVVKTPKTGLVELRTLETRELPPSAGG [r13_936_JUSTAS] | 1.707 ± 0.011 kcal/mol
49 | SAGGSAGGSAGGSMLKGKIISVDPKKGYAIIYIPGKKKLLIIKFDPDNTIVEIKEAPLSSAGGSAGGSAGGS [r4_192_TrMRF] | 2.21 ± 0.14 kcal/mol
50 | SAGGMVKIVRVTFEDGRELVLTEPEKIEEFLKKALGPNFVIKEVREGYVPHPDGPPIPTFELVVERPSAGGS [r16_408_TrMRF] | 2.65 ± 0.021 kcal/mol
51 | SAGGGPDEVSEVKVSSTTTDPATGKTYTVDTTTVTTPGTVTTNTTYTVHDPVTGAVTTETTTTTTPPGSAGG [r13_206_JUSTAS] | 0.481 ± 0.075 kcal/mol
